Test results taken from US20210032331A1 (PHANES THERAPEUTICS, published 2021).

T1: human LAG-3(ECD)-mFc (human, UniProt P18627 23-450)
T1 construct: also called hLAG3-mFc; human LAG-3 extracellular domain (ECD) fused to mouse Fc; not shown: mouse Fc
T1 sequence: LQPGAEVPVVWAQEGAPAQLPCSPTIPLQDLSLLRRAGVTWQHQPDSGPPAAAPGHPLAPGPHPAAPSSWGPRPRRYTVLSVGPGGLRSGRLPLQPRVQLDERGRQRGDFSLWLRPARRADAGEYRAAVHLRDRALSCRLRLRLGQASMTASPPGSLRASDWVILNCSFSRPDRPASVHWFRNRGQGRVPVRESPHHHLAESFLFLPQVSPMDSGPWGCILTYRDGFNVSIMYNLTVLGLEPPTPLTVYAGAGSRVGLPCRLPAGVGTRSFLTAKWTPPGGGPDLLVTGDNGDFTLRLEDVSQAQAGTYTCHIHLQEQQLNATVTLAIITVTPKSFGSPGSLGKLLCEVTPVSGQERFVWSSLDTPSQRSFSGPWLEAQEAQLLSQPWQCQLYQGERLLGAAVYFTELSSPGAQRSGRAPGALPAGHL

T2: human LAG-3(ECD)-huFc (human, UniProt P18627 23-450)
T2 construct: also called Fc-tagged human LAG-3(ECD)-huFc; not shown: human Fc (huFc) at the C-terminus
T2 sequence: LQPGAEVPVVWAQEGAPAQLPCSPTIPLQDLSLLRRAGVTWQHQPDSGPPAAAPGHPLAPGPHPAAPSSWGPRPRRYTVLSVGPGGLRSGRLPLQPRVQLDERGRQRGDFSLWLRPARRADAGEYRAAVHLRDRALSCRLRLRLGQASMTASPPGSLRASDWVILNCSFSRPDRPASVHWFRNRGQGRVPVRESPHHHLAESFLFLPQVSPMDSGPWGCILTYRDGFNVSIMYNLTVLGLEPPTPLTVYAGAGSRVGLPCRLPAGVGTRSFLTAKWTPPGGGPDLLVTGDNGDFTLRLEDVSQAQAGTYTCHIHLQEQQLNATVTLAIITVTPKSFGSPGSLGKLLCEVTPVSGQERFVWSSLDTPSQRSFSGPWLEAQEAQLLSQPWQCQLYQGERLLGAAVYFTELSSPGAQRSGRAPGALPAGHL


Tests used:
B7/IgG4 = biological target: T3, B7/IgG4; assay: ELISA peptide competition: peptide preincubated with B7/IgG4, competitor hLAG3-mFc; peptide at 600-fold hLAG3-mFc; final incubation 60 min at room temperature; anti-mouse IgG-HRP
T3 construct: Chimeric: mouse VH and VL with human IgG4 heavy chain and kappa light chain constant regions; also called B7 (human IgG4 heavy chain and kappa light chain chimeric)
Method: (§1) B5/IgG4 was preincubated with a competition peptide for 30 minutes. Then human LAG-3 extracellular domain (ECD) fused to mouse Fc (hLAG3-mFc) was added (the final peptide concentration was 600-fold that of hLAG3-mFc) and the mixture was incubated for 60 minutes before being added to an ELISA plate coated with anti-human IgG. The incubation was carried out at 4° C. overnight. After washing, the hLAG3-mFc bound to the immobilized B5/IgG4 on the ELISA plate was detected by adding anti-mouse IgG conjugated to horseradish peroxidase (HRP) and incubating for 60 minutes. Then, after washing, the ELISA was developed using One-step Detection Solution and measured as the absorbance at 450 nm.
The assay condition is the same as in FIG. 5A except that the final incubation of the mAb, the competition peptide, and hLAG3-mFc on the ELISA plate was performed at room temperature for 60 minutes instead of incubation at 4° C. overnight.
(§2) Anti-human IgG in carbonate coating buffer was coated on an ELISA plate at 4° C. (50 μL/well at 1 μg/mL) overnight. In each well of a separate plate, a chimeric version of a given anti-LAG-3 mAb (50 μL/well at 1.4 nM) and a competition peptide (50 μL/well at various concentrations as indicated in the figures) were mixed and incubated for 30 minutes at room temperature. Then human LAG-3 extracellular domain (ECD) fused to mouse Fc (hLAG3-mFc) was added to each well (50 μL/well at 2 nM) and the final mixture was incubated at room temperature for 60 minutes before added to the ELISA plate (50 μL/well) for another 60-minute incubation.

B5/IgG4 = biological target: T4, B5/IgG4; assay: ELISA peptide competition: peptide preincubated with B5/IgG4, competitor hLAG3-mFc; peptide at 600-fold hLAG3-mFc; capture on anti-human IgG, anti-mouse IgG-HRP
T4 construct: Chimeric: mouse VH and VL with human IgG4 heavy chain and kappa light chain constant regions; also called B5 (human IgG4 heavy chain and kappa light chain chimeric)
Method: as §1, with “FIGS. 5A-5D show the effect of competition peptides on LAG-3 binding to anti-LAG-3 mAbs. […] B5/IgG4 was” for “B5/IgG4 was”
as §2, with “incubation. The final incubation after adding the mixture to the ELISA plate was also performed at 4° C. overnight in some assays. The plate was washed and the binding of hLAG3-mFc to the immobilized anti-LAG-3 mAb was detected by adding anti-mouse IgG conjugated to horseradish peroxidase ([…]) (ThermoFisher Scientific, Cat#: A16084; Waltham, Mass.) and incubating for 60 minutes.” for “incubation.”

[1] = biological target: T5, B12 (human IgG1 heavy chain and kappa light chain chimeric); assay: ELISA peptide competition: peptide preincubated with chimeric IgG1 B12, competitor hLAG3-mFc; peptide at 600-fold hLAG3-mFc; capture on anti-human IgG, anti-mouse IgG-HRP
T5 construct: Chimeric: mouse VH and VL with human IgG1 heavy chain and kappa light chain constant regions
Method: as §1, with “FIGS. 5A-5D show the effect of competition peptides on LAG-3 binding to anti-LAG-3 mAbs. […] B5/IgG4 was” for “B5/IgG4 was”
as §2, with “incubation. The final incubation after adding the mixture to the ELISA plate was also performed at 4° C. overnight in some assays. The plate was washed and the binding of hLAG3-mFc to the immobilized anti-LAG-3 mAb was detected by adding anti-mouse IgG conjugated to horseradish peroxidase ([…]) (ThermoFisher Scientific, Cat#: A16084; Waltham, Mass.) and incubating for 60 minutes.” for “incubation.”

human LAG-3(ECD)-mFc = biological target: T1, human LAG-3(ECD)-mFc; assay: FACS blocking assay: mAb preincubated with LAG-3(ECD)-mFc (1 µg/mL), blocked ligand MHC class II on Daudi cells, PE anti-mouse Fc
Method: FIGS. 4A-4D show inhibition of human LAG-3 binding to MHC class II molecules by select anti-LAG-3 mAbs. An in vitro binding assay was performed using recombinant LAG-3(ECD)-mFc and Daudi cells which express human MHC class II molecules. […] The binding of LAG-3(ECD)-mFc to Daudi cells in the presence of anti-LAG-3 mAbs or a control mAb was analyzed by FACS.
Human Daudi cells were cultured in RPMI+10% FBS. Human LAG-3(ECD)-mFc protein (human LAG-3 ECD fused to mouse Fc) at 1 μg/ml final concentration was incubated with purified mouse, humanized, or chimeric anti-LAG-3 mAbs at various concentrations for 15 minutes at 4° C. The mixture was then added to 100,000 human Daudi cells in a 96-well round bottom plate, mixed and incubated for 15 minutes on ice. Cells were then centrifuged at 1,000 rpm for 5 minutes and washed with FACS buffer (PBS supplemented with 5% BSA) three times. The cells were then incubated with PE-conjugated goat anti-mouse Fc polyclonal antibodies on ice for 15 minutes, washed with FACS buffer three times and then resuspended in FACS buffer containing 0.1 μg/ml PI (propidine iodine) for live/dead cell gating. Cells were then run through the FACS Caliber instrument and the data were analyzed by the Flowjo software. Results of the inhibition of LAG-3 binding to Daudi cells by chimeric mAbs B1C, B3C, B4C, BSC, B9C, and B11C are shown in FIG. 4B.

human LAG-3(ECD)-huFc = biological target: T2, human LAG-3(ECD)-huFc; assay: SPR (Biacore): mAb from hybridoma supernatant captured on anti-mouse IgG CM5 chip, human LAG-3(ECD)-huFc 50-400 nM injected
Method: Anti-mouse IgG antibodies were immobilized via amine coupling on CM5 chip surface. Anti-LAG-3 mAbs in hybridoma supernatants were captured on the chip surface and a series of concentrations (50-400 nM) of human LAG-3(ECD)-huFc protein were injected and passed through the captured surface. The on and off rates for antibody-antigen binding were measured, curve fitted and calculated.

T5 sequence (VH, as listed by the source): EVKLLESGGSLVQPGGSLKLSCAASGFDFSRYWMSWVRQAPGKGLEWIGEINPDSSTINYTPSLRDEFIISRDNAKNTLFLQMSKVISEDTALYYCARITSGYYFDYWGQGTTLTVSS

| Binder | binding result (B7/IgG4) | binding result (B5/IgG4) | binding result [1] | also measured |
| --- | --- | --- | --- | --- |
| PAAPSSWGPRPRRY (also called peptide 17-30) [17-30] | binds |  |  |  |
| DSGPPAAAPGHPLAP (also called peptide D15) [D15] |  | binds | binds |  |
| GPPAAAPGHPLAPGPHPAA (also called peptide 1-19) [1-19] |  |  | binds |  |
| BG29 (human IgG4 heavy chain and kappa light chain chimeric) (antibody, V domains shown, Chimeric: mouse VH and VL with human IgG4 heavy chain and kappa light chain constant regions; also called chimeric BG29) VH: QIQLQQSGPEVVKPGASVRISCKASGYTFSDYHINWVKQKPGQGLEWIGWIYPGRGDPEYNEKFKGKATLTVDRSASTAYMQLSSLTSEDTSVYFCEIYYGNYIDYWGQGTTLTVSS VL: DIVMTQAAPSVPVTPGESVSISCRSSKSLLHSDGKTYLYWFLQRPGQSPQRLIYYMSNLASGVPDRFSGRGSGTDFTLRISRVEAEDVGVYYCMQSLEYPWTFGGGTKLEIK |  |  |  | IC50 (read off the curve) (human LAG-3(ECD)-mFc): ~1 nM |
| B1 (antibody, V domains shown, Mouse mAb from hybridoma; also called mouse anti-LAG-3 mAb B1) VH: DVQLQESGPGLVKPSQSLSLTCTVTGYSITSDYAWNWIRQFPGNKLEWMGYIDYSGITSYNPSLKSRISITRDTSKNQFFLQLNSVTTEDTATYYCAREDHYDLAWFAYWGQGTLVTVSA VL: DIQMTQTTSSLSASLGDRVTISCRASQDISNYLNWYQQKPDGTVKLLIYYTSRLHSGVPSRFSGSGSGTDYSLTISNLEPEDIATYYCHQYSNRPPTFGGGTKLEIK |  |  |  | Kd (human LAG-3(ECD)-huFc): 1.21 nM |
| PHPAAPSSWGPRP (also called peptide 15-27) [15-27] | binds |  |  |  |
| B3 (antibody, V domains shown, Mouse mAb from hybridoma; also called mouse anti-LAG-3 mAb B3) VH: QVQLQQPGAELLKPGASVKMSCKASGYTFTSYDIHWLKQTPGQGLEWIGAIYPENGDSSYSQKFKDKATLTADKSSNTAYIHLSSLTSEDSAVYYCARGGYYDYVWFPYWGQGTLVTVSA VL: DVVMTQTPLSLPVSLGDQASISCRSSQSILYSNGYTYLEWYLQKPGQSPKLLIYGVSNRFSGVPDRFSGSGSGTDFTLKISRVESEDMGVYYCFQGTHVPLTFGAGTKLELK |  |  |  | Kd (human LAG-3(ECD)-huFc): 1.53 nM |
| B4 (antibody, V domains shown, Mouse mAb from hybridoma; also called mouse anti-LAG-3 mAb B4) VH: QVQLQQPGAELLKPGASVKMSCKASGYTFTSYDIHWLKQTPGQGLEWIGAIYPENGDSSYSQKFKGKATLTADKSSNTAYIHLSSLTSEDSAVYYCARGGYFDYVWFPYWGQGTLVTVSA VL: DVVMTQTPLSLPVSLGDQASISCRSSQSIVYSNGYTYLEWYLQKPGQSPKLLIYGVSNRFSGVPDRFSGSGSGTDFTLKISRVEAEDMGVYYCFQGTHVPLTFGAGTKLELK |  |  |  | Kd (human LAG-3(ECD)-huFc): 0.217 nM |
| PPAAAPGHPLA (also called peptide 2-12) [2-12] |  | binds |  |  |
| AAPSSWGPRPRRY (also called peptide 18-30) [18-30] | binds |  |  |  |
| SGPPAAAPGHPLAP (also called peptide S14) [S14] |  | binds | binds |  |
| B13 (antibody, V domains shown, Mouse mAb from hybridoma; also called mouse anti-LAG-3 mAb B13) VH: EVMLVESGGGLVKPGGSLKVSCAASGFTFSIYAMCWVRQTPEKRLEWVATISSGGSNTYYPDSVKGRFTISRDNAKNTLYLQMSSLRSEDTAVYYCARGDVYYDYDGRGFDYWGQGTTLTVSS VL: DIVMTQSPSSLTVTAGEKVTMSCKSSQSLLNSGNQKNYLTWYQQKPGQPPKMLIYWASTRESGVPERFTGSGSGTDFTLTINSVQAEDMAIYYCQNDYGYPLAFGAGTRLELK |  |  |  | Kd (human LAG-3(ECD)-huFc): 8.17 nM |

Further lines, with some results ahead:

| binding result (B7/IgG4) | binding result (B5/IgG4) | binding result [1] | Binder | also measured |
| --- | --- | --- | --- | --- |
| binds |  |  | PHPAAPSSWGPRPR (also called peptide 15-28) [15-28] |  |
|  | binds | binds | QPDSGPPAAAPGHPLAP (also called peptide Q17) [Q17] |  |
|  | binds | binds | QPDSGPPAAAPGHPLA (also called peptide Q16) [Q16] |  |
| binds |  |  | APSSWGPRPRRY (also called peptide 19-30) [19-30] |  |
|  | binds | binds | PDSGPPAAAPGHPLAP (also called peptide P16) [P16] |  |
| binds |  |  | PHPAAPSSWGPRPRR (also called peptide 15-29) [15-29] |  |
